{"source": "patent US20190263863A1", "about": "(GENOIMMUNE THERAPEUTICS, published 2019)", "binders": {"B1": {"name": "wild-type polypeptide FLLGNLSFV (SEQ ID NO:5) (peptide)", "peptide": "FLLGNLSFV", "notes": "Made by solid phase peptide synthesis, HPLC purity >90%"}, "B2": {"name": "mutant polypeptide FLLGNLFFV (SEQ ID NO:1) (peptide)", "peptide": "FLLGNLFFV", "notes": "Made by solid phase peptide synthesis, HPLC purity >90%; also called OR4K5 S67F mutant polypeptide"}, "B3": {"name": "mutant polypeptide's variant FMLGNLFFV (SEQ ID NO:3) (peptide)", "peptide": "FMLGNLFFV", "notes": "as for B1"}, "B4": {"name": "mutant polypeptide's variant FLLGNLFFL (SEQ ID NO:2) (peptide)", "peptide": "FLLGNLFFL", "notes": "as for B1"}, "B5": {"name": "mutant polypeptide's variant FMLGNLFFL (SEQ ID NO:4) (peptide)", "peptide": "FMLGNLFFL", "notes": "as for B1"}}, "data": [{"biological_target": "T1, HLA-A0201 on the surface of T2 cells (human)", "T1 construct": "surface HLA-A*02:01 is detected with an anti-HLA-A*02:01 FITC monoclonal antibody after loading with peptide", "test": "T2 cell peptide loading assay, 100 uM peptide, anti-HLA-A*02:01 FITC, flow cytometry", "description": "After centrifugation at 200 g for 5 minutes for cell collection, the collected cells were washed with phosphate buffer saline (PBS) buffer twice, before incubated with anti-HLA-A*02:01 FITC monoclonal antibody at 4° C. for 30 minutes. The mean fluorescence intensity of cells was then detected and analyzed by the flow cytometry (BD FACSJazz™) and its software.", "values": [{"binder": "B1", "FI (fluorescence index)": 2.27, "Mean fluorescence intensity": 724}, {"binder": "B2", "FI (fluorescence index)": 2.22, "Mean fluorescence intensity": 713}, {"binder": "B3", "FI (fluorescence index)": 2.13, "Mean fluorescence intensity": 694}, {"binder": "B4", "FI (fluorescence index)": 2.17, "Mean fluorescence intensity": 702}, {"binder": "B5", "FI (fluorescence index)": 2.1, "Mean fluorescence intensity": 686}]}]}
